According to patent publication US20050260210A1 (FACET BIOTECH, published 2005):

Biological target: T1, mouse α5β1 integrin (mouse, UniProt P11688 45-1053; P09055 21-798)
T1 construct: Named as present on mouse xenograft tumor vasculature
Test: not described

T1 sequence (P11688 45-1053, chain 1 of 2): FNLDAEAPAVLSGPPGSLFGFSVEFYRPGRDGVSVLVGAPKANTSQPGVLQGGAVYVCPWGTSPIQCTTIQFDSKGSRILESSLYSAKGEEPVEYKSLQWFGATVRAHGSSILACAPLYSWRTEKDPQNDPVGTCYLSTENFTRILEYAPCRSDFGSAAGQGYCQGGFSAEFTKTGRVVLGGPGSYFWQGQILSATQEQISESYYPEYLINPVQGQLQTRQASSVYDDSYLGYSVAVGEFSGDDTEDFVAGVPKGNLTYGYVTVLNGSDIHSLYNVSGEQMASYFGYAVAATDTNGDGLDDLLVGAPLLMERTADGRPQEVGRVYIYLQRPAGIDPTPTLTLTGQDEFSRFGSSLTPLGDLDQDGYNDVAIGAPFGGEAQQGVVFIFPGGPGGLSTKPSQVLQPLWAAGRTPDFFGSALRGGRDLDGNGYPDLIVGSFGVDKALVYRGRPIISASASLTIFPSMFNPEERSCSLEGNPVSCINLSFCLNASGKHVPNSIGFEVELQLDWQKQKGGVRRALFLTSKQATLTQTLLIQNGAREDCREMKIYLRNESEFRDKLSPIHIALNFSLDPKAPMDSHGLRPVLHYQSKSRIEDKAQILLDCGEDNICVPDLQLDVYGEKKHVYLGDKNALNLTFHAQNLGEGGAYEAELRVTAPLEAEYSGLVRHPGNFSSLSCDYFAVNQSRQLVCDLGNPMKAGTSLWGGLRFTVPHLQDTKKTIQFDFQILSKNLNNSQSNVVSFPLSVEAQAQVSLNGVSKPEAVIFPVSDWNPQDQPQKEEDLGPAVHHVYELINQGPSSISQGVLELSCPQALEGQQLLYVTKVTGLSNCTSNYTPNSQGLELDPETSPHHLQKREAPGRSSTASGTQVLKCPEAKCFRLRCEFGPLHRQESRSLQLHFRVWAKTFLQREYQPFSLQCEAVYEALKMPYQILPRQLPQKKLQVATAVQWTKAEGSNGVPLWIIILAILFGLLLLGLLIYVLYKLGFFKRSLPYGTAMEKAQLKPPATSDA
T1 sequence (P09055 21-798, chain 2 of 2): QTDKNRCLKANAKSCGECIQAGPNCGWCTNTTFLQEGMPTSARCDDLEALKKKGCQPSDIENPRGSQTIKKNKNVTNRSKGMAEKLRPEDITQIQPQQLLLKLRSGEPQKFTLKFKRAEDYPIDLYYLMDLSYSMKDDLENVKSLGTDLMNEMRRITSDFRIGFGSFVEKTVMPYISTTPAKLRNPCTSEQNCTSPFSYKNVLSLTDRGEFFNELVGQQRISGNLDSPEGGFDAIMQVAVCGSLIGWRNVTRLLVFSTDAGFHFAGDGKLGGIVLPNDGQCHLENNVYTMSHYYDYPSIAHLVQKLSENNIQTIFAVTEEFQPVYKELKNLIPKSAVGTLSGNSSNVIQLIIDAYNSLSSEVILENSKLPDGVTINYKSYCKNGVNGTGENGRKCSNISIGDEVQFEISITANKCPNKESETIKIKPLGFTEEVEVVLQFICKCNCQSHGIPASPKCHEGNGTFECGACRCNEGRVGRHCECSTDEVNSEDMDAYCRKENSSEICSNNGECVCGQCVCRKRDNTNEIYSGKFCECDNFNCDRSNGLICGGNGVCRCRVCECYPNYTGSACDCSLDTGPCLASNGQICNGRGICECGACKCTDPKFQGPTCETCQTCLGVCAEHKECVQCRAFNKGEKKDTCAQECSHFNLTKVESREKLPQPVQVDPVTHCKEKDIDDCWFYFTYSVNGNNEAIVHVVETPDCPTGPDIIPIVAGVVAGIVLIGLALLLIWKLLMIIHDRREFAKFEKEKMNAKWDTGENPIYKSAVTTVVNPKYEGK

binding result	Binder
no binding	IIA1, anti-α5β1 mouse antibody (antibody, mouse IgG1, V domains shown, also called mouse anti-α5β1 antibody) VH: QVQLKESGPGLVAPSQSLSITCTISGFSLTDYGVHWVRQPPGKGLEWLVVIWSDGSSTYNSALKSRMTIRKDNSKSQVFLIMNSLQTDDSAMYYCARHGTYYGMTTTGDALDYWGQGTSVTVSS VL: QIVLTQSPAIMSASLGERVTMTCTASSSVSSNYLHWYQQKPGSAPNLWIYSTSNLASGVPARFSGSGSGTSYSLTISSMEAEDAATYYCHQYLRSPPTFGGGTKLEIK
no binding	M200, chimeric anti-α5β1 antibody (antibody, IgG4, V domains shown, also called volociximab) VH: QVQLKESGPGLVAPSQSLSITCTISGFSLTDYGVHWVRQPPGKGLEWLVVIWSDGSSTYNSALKSRMTIRKDNSKSQVFLIMNSLQTDDSAMYYCARHGTYYGMTTTGDALDYWGQGTSVTVSS VL: QIVLTQSPAIMSASLGERVTMTCTASSSVSSNYLHWYQQKPGSAPNLWIYSTSNLASGVPARFSGSGSGTSYSLTISSMEAEDAATYYCHQYLRSPPTFGGGTKLEIK
